Assay: yeast display, Sf9 membrane polyspecificity reagent, FACS + sequencing; frameworks hold sequencing errors
Outline: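 Galactose-induced (36–48 hours) yeast carrying a synthetic nanobody display library were exposed to 10% biotinylated, detergent-solubilized Sf9 membrane reagent at 4 °C for 1 hour. FACS followed streptavidin microbead enrichment, using low and high (top ~1%) gates for expression (anti-HA) and reagent binding (streptavidin). Colony PCR, MiSeq 2 × 250 sequencing and CDR-length filtering followed. Labels for polyreactivity reflect the gate of origin.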

Sequence | polyreactivity (PSR sort gate)
EEELVDSGGGLVQAGGSLRLSCSAYGSTFRDYAMGWYRQAPGKERELVAAITSGGTTDYADSVKGRFPISRDNAKNTVYLQMNSLKPEDTAVYYCNKDGVVAGYQYDYWGQGTQVTVSS | low polyreactivity
EEELVESGGGLVQAGCSLRLSCAATGSTIIWNAMGWYIQAPGKERELVAAITRSGGRTYYADSVKGRFTISRDNAKNTVYLLMNSLIPEDTAVYYCAAVIWGYYYGGKYVYYYPYGYWGQGTQVTVSS | high polyreactivity
EEELVESGGGLVQAGGSLRLSCAASGRTFARNAMGWYRQAPGKERELVAGINFSGGNTYYADSVKGRFTISRDNAKNTVYLQMNSLKPEDTAVYYCAARRYWEGDYWGHGTQVTVSS | low polyreactivity
EEELVESGGGLVQAGGSLRLSCAASGSIFVVNAMGWYRQAPGKERELVAAISRGGITNYADSVKGRFTISRDNAKNTVYLQMNSLKPEDTAVYYCNARGSRWVKPERDYWGQGTQVTVSS | low polyreactivity
EVQHVESGGGLVQAGGSLRLSCAASGSTFYENAMGWYRQAPGKERELVAAINWSGGRTYYADSVKGRFTISRDNAKNTVNLQMNCLKQEYTAVYYCATREYRYAHSYYWGQGTQVTVSS | high polyreactivity
EVQLVESGGGLVQAGGSLRLSCAASGYSFSYNTMGWYRQAPGKERELVAAITRSGGSTYYADSVKGRFTISRDNAKNTVYLQMNSLKPEDTAVYYCNRVGWRGLKKANYWGQGTQVTVSS | high polyreactivity
EVQLVESGGGLVQPGGSLRLSCAASGYIYRRYRMGRYRQAPGKGREFVAAISGGSSTNYADSVKGRFTNSRDNSKNTVYLQMNSLRAEDTAVYYCAAYKIDSDPRVYWGQGTQVTVSS | low polyreactivity
FVQAGGSLRLTCAASGSTFYGNAMGWYRQATGKERELVAGITGDGGSTYYADSVKGRFTISRDNAKNTVYLQMNSLKPEDTAVYYCAVDVIVLGQWPRQLDEFDYWGQGTQVTVSS | low polyreactivity
HDQHVESGGGLVQAGGSLRLSCAASGFTFYFYTMGWYRQAPGKERELVAAITGSGGSTYYADSVKARFTFSRDNAKNTVYLQMNSLKPEDTAVYYCAASYYPERVATWRGYYYWGQGTQVTVSS | high polyreactivity
HVHLVESGGGLVQAGGSLPLSCAASGFIISHYTMGWYRQAPGKERELVAGISWSGGNTYYADFVKGRFTISRDHAKNTVYLQMNSLKPEDTAVYYCNADWIGVPLAYDYWGQGTQVTVSS | low polyreactivity
HVQHVESAGGLVQAGGSLRLSCAASGSIFTYNALGGYIQAPGKERELVAAIDYSGGSTYYADSVKGRFTISRDNAKNTVYLQMNSLKPEDTAVYYCAAPWVPYPGYSLYGYDYWGQGTQVTVSS | low polyreactivity
HVQHVESGGGLVQAGGSLRLSCAASGRIFRPNAMGRYRQAPGKERELVAAITSNGGRTYYADSVKGRFTISRDNAKTTVYLQMTSQKPEDTAVYYCNAAPFRSGYGYWGQGTQVNVSS | high polyreactivity
HVQLEESGGGLVQAGGSLRLSCAASGFTFNRYAMGWYRQAPGKERELVAAISSGGRTYYADSVKGRFTISRDNAKNTVYLQMNRLKPDDTAVYYCAADWSLYSHEFDYWGQGTQVTVSS | high polyreactivity
HVQLGESGGGLVQAGGSLRLSCAASGFIFDVYAMGWYRQAPGKERELVAAISSSGGRTYYADSVKGRFTISRDNAKNTVYLQMNSLKPEDTAVYYCAAKTHSRTKVYTADYWGQGTQVTVSS | high polyreactivity
HVQLQESGGGLVQAGGSLRLSCAASGSIFQATYMGWYRQAPGKEREFVASITYGSITNYADSVKGRFTIGRDNAKDTLYLQMNSLKPEDTAVYYCAVDRHYIPAFHYWGQGTEVTVSS | low polyreactivity
HVQLQESGRRPGAAGGSPRMSCAASGNIYWVAVMGRYRQAPGEERELVASIGFGCTTYYADSVKCRFTISRDNAKNTVYLQMISLKPEDTAVYYCAAPHYDWGELDYWGQGTQVPVSS | low polyreactivity
HVQLQESGVGLVQAGGSLRLSCAASGTISQEYWMGWYRQAPGKEREFVAAIGLGSNTNYADSLKGRFTISRDNSTNTVFLQMNSLKPEDTAVYYCAVSVWQYSDHVYRGQGTQVTVSS | low polyreactivity
HVQLVESAGGLVPAGGSLRLSCAASGFIVWWYPMGWYRQAPGKERELVASITRGGRTNYADSVKGRFTISRDNAKNTVYLHMNSLKPEDTAVYYCAADVLLSRSNTPQRPSRLYYWGQVTQVTVSS | high polyreactivity
HVQLVESGGGLVQAGASLRLSCAASGRIFGRNAMGWYRQAPGKERELVAAISGNGGSTYYADSVKGRFTISRDIAKNTVYLQMNSLKPEDTAGYYCATKYFSRMDYWGQGTQVTVSS | high polyreactivity
HVQLVESGGGLVQAGGSLRFSCAASVSTLRWNAMGWYRQAPAKEREMVAAITYSGGSTYYADSVKGLFTISRDNAKNTVYLQMNSLKPEDTAVYYCAADSYRYRPGYGPVLYDYWGQGTQVTVSS | high polyreactivity
HVQLVESGGGLVQAGGSLRLSCAASGFIFKPYDMGLYRQAPGKERELVAAISWTGTSTYYADSVKGRFTISRDNAKNTVYLQINSLKPEDTAVFYCAKRWSAGAQHGFDYWGQGTQVTLSS | low polyreactivity
HVQLVESGGGLVQAGGSLRLSCAASGFIFQSYAMGWYRQAPGKERELVASISASGGSTYYADSVKGRFTISRDNAKNTVYLQMNSLKPEDTAVYYCAAGYWSYWSLRMDYWGQGTQVTVSS | high polyreactivity

Sequence | polyreactivity (PSR sort gate)
HVQLVESGGGLVQAGGSLRLSCAASGFIIGYYAMGWYRQAPGKERELVASITWSTTSTYYADSVKGRFTISRDNAKNTVYLQMNSLKPEDTAVYYCAADLQSKLPSSIYIGDYWGQGTQVTVSS | low polyreactivity
HVQLVESGGGLVQAGGSLRLSCAASGFTFARYAMGWYRQAPGKERDLVATITRSGDSTNYADSVKGRFTISRDNAKNTVYLQMNSLKPEDTAVYYCNRRYPIWYRTMNYWGQGTQVTVSS | high polyreactivity
HVQLVESGGGLVQAGGSLRLSCAASGFTSYLYTMGWYRQAPGKERELVAAISNSGGNTYYADSVKGRFTISRDNAKNTVYLQMNSLKPEDTAVYYCAARLFAAKYRYGYWGQGTQVTVSS | high polyreactivity
HVQLVESGGGLVQAGGSLRLSCAASGIIFITNAMGWYRQAPGKERELVAAISSTVSTYYADSVKGRFTISRDKAKNTVYLQMNRLKPADTAVYYCAAEWGLTQGESIYDYWGQGTQVTVSS | low polyreactivity
HVQLVESGGGLVQAGGSLRLSCAASGIIFNLYAMGWYRQAPVKERELFAAISWSGGSTYYADSVKGRFTISRDNAKNTVYLKMNSLKPEDTAVYYCAAQRSVFKSFRTTYVRYDYWGQGTQVTVSS | high polyreactivity
HVQLVESGGGLVQAGGSLRLSCAASGLIFKRYAIGGYRKAPGKERELVAAISYSGGSTYYEDSVKGRFTISRDYAKNTVYLQMNSLKPEDTAVYYCNAQSYRSDSAYHYKYDYWGQGTQVTVSS | high polyreactivity
HVQLVESGGGLVQAGGSLRLSCAASGLTFQYNAMGWYRQAPGKERELVATISQSGGSTYYADSVKGRFTISRDNAKNTVYLQMNSLKPEDTAVYYCAAYRAWTWRIRYDYWGQGTQVTVSS | low polyreactivity
HVQLVESGGGLVQAGGSLRLSCAASGRIFGAYAMGWYRQAPGKEREFVAAITSRGGNTYYADSVKGRFTISRDNAKNTVYLQMNSLIPEDTAVYYCAARHDKRRQYYVGQSAFDYWGQGTQVTVSS | low polyreactivity
HVQLVESGGGLVQAGGSLRLSCAASGRIFPGYAMGWYRQAPGKERELVAGISNDASTNYADSVKGRFTISRDNAKNTVYLQMNSLKPEDTAVYYCAAEIYYLSVPRYDYWGQGTQVTVSS | low polyreactivity
HVQLVESGGGLVQAGGSLRLSCAASGRIFSVYTMGWYRQAPGKDRELVATISSGGRTNYADSVKGRFTISRDNAKNTVYLQMNSLKPEDTAVYYCAAVPYGFVGYDDYWGQGTQVTVSS | low polyreactivity
HVQLVESGGGLVQAGGSLRLSCAASGRIFYYNGMGWYRPAPGKERELVAAITPSDTSTYYAVSVKGRFTISRDNAKNTVYLQMNSLKPEDTAVYYCNADYDNHEMDYWGQGTQVTVSS | low polyreactivity
HVQLVESGGGLVQAGGSLRLSCAASGRILRRNAMGWYRQAPGKEREFVAAITWRGGSTYYADSVKGRFTISRDNAKNTVYLQMNSLKPEDTAVYYCAADTYSVEYVLPYYYWGQGTQVTVSS | high polyreactivity
HVQLVESGGGLVQAGGSLRLSCAASGRNFIYNAMGWSSPAPGTDRELVAAINRSGVSTHYADSVKGRFTISRDNAKKTVYLQMNSLKPEDTAVEYCARTVYGARSYDYWGQGTQVTVSS | low polyreactivity
HVQLVESGGGLVQAGGSLRLSCAASGRTFVVYAMGWDRQAPGKERELVAAITSSGGSTYYADSVKGRFTISRDNAKNTVYLQMNSLKPEDTAVYYCNRVYVRAGVSVAYNYWGQGTQVTVSS | high polyreactivity
HVQLVESGGGLVQAGGSLRLSCAASGSIFIKYAMGWYRQAPGKERELVAAISRRGGSTYYADSVKGRFTISRDNAKNTVYLQMNSLKPEDTAVYYCAAVNIRFGYWGQGTQVTVSS | high polyreactivity
HVQLVESGGGLVQAGGSLRLSCAASGSTFYNNAMGWTRQAPGKERELVAAITSSVGSTQYADSVKGRFTISRDKAKNTVYLPMNSLKPADTAVYYCAATFGYGRYGYWGQGTQVTVSS | low polyreactivity
HVQLVESGGGLVQAGGSLRLSCAASGSTLYWNAIGWYRQAPGKEMELVASITSSGGSTYYADSVKGRFTISRDNAKNTVYLQMNSLKPEDTAVYYCATESWWRYSEYYYWGQGTQVTVSS | low polyreactivity
HVQLVESGGGLVQAGGSLRLSCAASGTFTYYAMGWYRQAPGKERELVAAITWRGGNTYYADSVKGRFTISRDNAKNTVYLQMNSLKPEDTAVYYCATDYWYIRWGGYYWGQGTQVTVSS | low polyreactivity
HVQLVESGGGLVQAGGSLRLSCAASGYILDRNAMGWYRQAPGKESELVAVISWGGTRTYYADSVKGRFTISRDNAKNTVYLQMNSLKPEVTAVYYCARYPYYYGYAGRYDYWGQGTQVTVSS | high polyreactivity
HVQLVESGGGLVQAGGSLRVSCAASGSILTRNAMGWYRQAPGKERELVAAITGSGGRTYYADSVKGRFTISRDNAKNTVDLQMNSLKPEDTAVYYCAAGWRFGRYSGDYWGQGTQVTVSS | high polyreactivity
HVQLVETGGGLVQAGGSLRLSCAASGSTFYIYAMGCYRPAPGKEREFVAAIDFSGSSTYADSVKGRFTISRDNAKNTVYLQMNSLKPEDTAVYYCSARWYLTGGWTWVSFSHDYWGQGTQVTVSS | low polyreactivity

Source: the nanobody polyreactivity screen of Harvey et al. (2022)
